Measured values from PMC9852238 (Nature Communications, 2023).

Key:
[1] = target: RaTG13-CoV RBD-His8-SpyTag003 (Bat coronavirus RaTG13); experiment: ELISA; settings: both partners purified
[2] = target: SHC014-CoV RBD-His8-SpyTag003 (Bat SARS-like coronavirus RsSHC014); experiment: ELISA; settings: both partners purified
[3] = target: Rs4081-CoV RBD-His8-SpyTag003 (Bat SARS-like coronavirus Rs4081); experiment: ELISA; settings: both partners purified
[4] = target: pangolin17 (pang17)-CoV RBD-His8-SpyTag003 (pangolin17-CoV); experiment: ELISA; settings: both partners purified
[5] = target: RmYN02-CoV RBD-His8-SpyTag003 (Bat coronavirus RmYN02); experiment: ELISA; settings: both partners purified
[6] = target: T1, Rf1-CoV RBD-His8-SpyTag003 (Bat SARS-like coronavirus Rf1); experiment: ELISA; settings: both partners purified
T1 construct: clade 2

[7] = target: WIV1-CoV RBD-His8-SpyTag003 (Bat SARS-like coronavirus WIV1); experiment: ELISA; settings: both partners purified
[8] = target: T2, Yunnan2011 (Yun11)-CoV RBD-His8-SpyTag003 (Bat coronavirus Cp/Yunnan2011); experiment: ELISA; settings: both partners purified
T2 construct: clade 2

[9] = target: BM48-31-CoV RBD-His8-SpyTag003 (Bat coronavirus BM48-31); experiment: ELISA; settings: both partners purified
[10] = target: SARS-CoV spike, ELISA antigen (SARS-CoV, strain not named (reference …, UniProt P59594)); experiment: ELISA; settings: both partners purified
[11] = target: SARS-CoV-2 spike (S) protein, ELISA antigen (SARS-CoV-2, Wuhan-Hu-1 (assumed), UniProt P0DTC2); experiment: ELISA; settings: both partners purified
[12] = target: T3, SARS-CoV-2 RBD (wild type), ELISA antigen (SARS-CoV-2, UniProt P0DTC2); experiment: ELISA; settings: both partners purified
[13] = target: SARS-CoV RBD-His8-SpyTag003 (SARS-CoV (GenBank ON131087, strain not …, UniProt P59594)); experiment: ELISA; settings: both partners purified
[14] = target: T3, SARS-CoV-2 RBD (wild type), ELISA …; experiment: cell-based or functional assay

Binder	binding result [1]	binding result [2]	binding result [3]	binding result [4]	binding result [5]	binding result [6]	binding result [7]	binding result [8]	binding result [9]	OD in ELISA at 1 µg/ml [10]	OD in ELISA at 1 µg/ml [11]	OD in ELISA at 1 µg/ml [12]	binding result [13]	IC50 of neutralisation of SARS-CoV-2 (potency of IS-9A) [14]
EY-6A (antibody, V domains shown, also called mAb EY-6A; source: ExpiCHO cells, transiently transfected, purified (rProtein A Sepharose); copies: 2 + 2) VH: EVQLVESGGGVVQPGRSLRLSCAASAFTFSSYDMHWVRQAPGKGLEWVAVISYDGSNKYYADSVKGRFTISRDNSKNTLYLQMNSLRAEDTAVYYCAKDGGKLWVYYFDYWGQGTTVTVSS VL: not shown	binds	binds	binds	binds	binds	binds	binds	binds	binds	1.67 OD	1.75 OD	1.81 OD	–	–
IY-2A (antibody, V domains shown, source: ExpiCHO cells, transiently transfected, purified (rProtein A Sepharose); copies: 2 + 2) VH: QVQLVEWGAGLLKPSETLSLTCAVYGGSFSGYYWSWIRQPPGKGLEWIGLINHSGSTNYNPSLKSRVTISLDTSKNQFSLKLTSVTAADTAVYYCARGLGIFGVVTLSDVWGQGTTVTVSS VL: NFMLTQPHSVSESPGKTVTISCTGSSGSIASNYVQWYQQRPGSAPTTVIYEDNQRPSGVPDRFSGSIDSSSNSASLTISGLRTEDEADYYCQSYDSGIWVFGGGTKLTVL	binds	binds	binds	binds	binds	binds	binds	binds	binds	1.78 OD	1.8 OD	1.87 OD	–	–
FP-12A (antibody, V domains shown, copies: 2 + 2) VH: EVQLVESGGGVVQPGRSLRLSCAASGFTFSSYGMHWVRQAPGKGLEWVAVISYDGSNKYYADSVKGRFTISRDNSKNTLYLQMNSLRAEDTAVYYCANGFGEYYYYAMDVWGQGTTVTVSS VL: NFMLTQPHSVSESPGKTVTISCTGSSGSIASNYVQWYQRRPGSAPTTVIYEDNQRPSGVPDRFSASIDSSSNSASLTISGLKTEDEADYYCQSYDSSNWVFGGGTKLTVL	no binding (tested: 50 nM)	no binding (tested: 50 nM)	no binding (tested: 50 nM)	no binding (tested: 50 nM)	no binding (tested: 50 nM)	no binding (tested: 50 nM)	no binding (tested: 50 nM)	no binding (tested: 50 nM)	no binding (tested: 50 nM)	–	1.76 OD	1.79 OD	no binding (tested: 50 nM)	–
IS-9A (antibody, V domains shown, source: ExpiCHO cells, transiently transfected, purified (rProtein A Sepharose); copies: 2 + 2) VH: QVQLVQSGAEVKKPGESLRISCKGSGYSFTNYWISWVRQMPGKGLEWMGRIDPSDSYINYSPSFQGHATISADKSISTAYLQWGSLKASDTAMYYCARGRNYLDSRGRFDYWGQGTLVTVSS VL: DIVMTQSPSSLSASVGDRVTITCQASQDISNYLNWYQQKSGKAPKLLIYDASNLETGVPSRFSGSGSGTDFTFTISSLQPEDIATYYCQQYDSLGFTFGPGTKVEIR	binds	binds	–	–	–	–	binds	–	–	1.83 OD	1.78 OD	1.88 OD	–	0.03 µg/mL
